# According to patent publication US20240116985A1 (published 2024):
# Starred links: 1 amine or outer side, 2 acyl side, 3 side chain; linkers in the order of their positions; H or OH if unused. Positions of bridges follow the written chain, without caps; N, C: chain ends. Non-standard residues stand in square brackets, D forms with d. Primed or numbered codes have the meaning given here. PyrS2″ = (S)-3-amino-1-((pent-4-en-1-yloxy)carbonyl)pyrrolidine-3-carboxylic acid (stapling residue), C=CCCCOC(=O)N1CC[C@@](N[*:1])(C(=O)[*:2])C1; B5(4) = 2,2-bis(4-pentenyl)glycine = 2-amino-2-(pent-4-en-1-yl)hept-6-enoic acid (stitching residue), C=CCCCC(CCCC=C)(N[*:1])C(=O)[*:2]; PyrS = (S)-1-((allyloxy)carbonyl)-3-aminopyrrolidine-3-carboxylic acid, C=CCOC(=O)N1CC[C@@](N[*:1])(C(=O)[*:2])C1; B5 = 2-amino-2-(pent-4-en-1-yl)hept-6-enoic acid, C=CCCCC(CCCC=C)(N[*:1])C(=O)[*:2]; Phe(3-OMe) = COc1cccc(C[C@H](N)C(=O)O)c1; Phe(4-F) = N[C@@H](Cc1ccc(F)cc1)C(=O)O; Bta = N[C@@H](Cc1csc2ccccc12)C(=O)O; αAllylPro = C=CC[C@@]1(C(=O)O)CCCN1; tBuAla = CC(C)(C)C[C@H](N)C(=O)O; R8 = C=CCCCCCC[C@@](C)(N)C(=O)O; 3Thi = N[C@@H](Cc1ccsc1)C(=O)O; S8 = C=CCCCCCC[C@](C)(N)C(=O)O; TfeGA″ = not defined here
# T1: B-cat-Halo (UniProt P35222 1-781)
# T1 sequence (looked up): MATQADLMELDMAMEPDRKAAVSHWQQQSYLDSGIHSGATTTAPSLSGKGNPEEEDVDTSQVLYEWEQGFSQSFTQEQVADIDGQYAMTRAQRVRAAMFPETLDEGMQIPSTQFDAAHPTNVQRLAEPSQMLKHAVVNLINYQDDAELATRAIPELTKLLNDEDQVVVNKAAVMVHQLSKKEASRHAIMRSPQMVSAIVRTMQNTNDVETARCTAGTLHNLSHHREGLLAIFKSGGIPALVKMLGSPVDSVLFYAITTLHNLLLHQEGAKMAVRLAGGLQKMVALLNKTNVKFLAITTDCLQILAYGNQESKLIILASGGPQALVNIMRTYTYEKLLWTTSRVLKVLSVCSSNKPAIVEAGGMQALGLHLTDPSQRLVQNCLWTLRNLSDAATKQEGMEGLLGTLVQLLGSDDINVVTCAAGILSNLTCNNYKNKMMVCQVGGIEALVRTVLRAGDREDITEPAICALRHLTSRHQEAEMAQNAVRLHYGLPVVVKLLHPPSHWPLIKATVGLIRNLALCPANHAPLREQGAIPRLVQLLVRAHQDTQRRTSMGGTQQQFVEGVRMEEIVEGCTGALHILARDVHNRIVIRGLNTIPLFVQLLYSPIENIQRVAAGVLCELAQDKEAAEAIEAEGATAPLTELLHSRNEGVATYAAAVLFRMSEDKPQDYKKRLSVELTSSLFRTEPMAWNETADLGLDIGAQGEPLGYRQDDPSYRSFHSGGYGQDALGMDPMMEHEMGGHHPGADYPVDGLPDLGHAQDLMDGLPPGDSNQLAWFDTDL
# T2: beta-catenin in DLD1 TCF/LEF luciferase reporter cells (UniProt P35222 1-781)
# T2 sequence (looked up): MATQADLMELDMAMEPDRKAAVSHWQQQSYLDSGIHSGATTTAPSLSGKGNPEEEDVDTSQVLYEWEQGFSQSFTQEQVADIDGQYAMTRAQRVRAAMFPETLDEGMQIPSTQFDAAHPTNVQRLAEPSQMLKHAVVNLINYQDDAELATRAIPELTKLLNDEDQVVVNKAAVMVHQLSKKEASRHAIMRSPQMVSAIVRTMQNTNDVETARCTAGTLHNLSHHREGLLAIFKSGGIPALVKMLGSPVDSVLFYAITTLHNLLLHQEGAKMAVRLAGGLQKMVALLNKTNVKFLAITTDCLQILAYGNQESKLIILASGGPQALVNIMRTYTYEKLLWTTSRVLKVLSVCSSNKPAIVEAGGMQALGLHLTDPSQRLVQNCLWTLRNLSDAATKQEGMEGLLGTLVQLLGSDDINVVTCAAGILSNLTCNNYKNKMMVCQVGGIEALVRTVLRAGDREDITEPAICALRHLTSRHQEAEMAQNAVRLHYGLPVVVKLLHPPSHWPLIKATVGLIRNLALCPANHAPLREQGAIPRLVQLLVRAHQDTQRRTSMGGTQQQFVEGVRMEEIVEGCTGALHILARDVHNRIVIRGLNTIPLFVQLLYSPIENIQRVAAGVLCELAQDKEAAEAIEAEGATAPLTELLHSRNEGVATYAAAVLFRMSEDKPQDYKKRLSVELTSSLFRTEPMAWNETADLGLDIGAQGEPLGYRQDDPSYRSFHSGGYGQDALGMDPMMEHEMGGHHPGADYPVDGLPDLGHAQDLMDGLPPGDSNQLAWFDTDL
# T3: full-length beta-Catenin (Uniprot ID P35222) (Homo sapiens (Human), UniProt P35222 2-781)
# T3 construct: also called bCat; B-Catenin
# T3 sequence: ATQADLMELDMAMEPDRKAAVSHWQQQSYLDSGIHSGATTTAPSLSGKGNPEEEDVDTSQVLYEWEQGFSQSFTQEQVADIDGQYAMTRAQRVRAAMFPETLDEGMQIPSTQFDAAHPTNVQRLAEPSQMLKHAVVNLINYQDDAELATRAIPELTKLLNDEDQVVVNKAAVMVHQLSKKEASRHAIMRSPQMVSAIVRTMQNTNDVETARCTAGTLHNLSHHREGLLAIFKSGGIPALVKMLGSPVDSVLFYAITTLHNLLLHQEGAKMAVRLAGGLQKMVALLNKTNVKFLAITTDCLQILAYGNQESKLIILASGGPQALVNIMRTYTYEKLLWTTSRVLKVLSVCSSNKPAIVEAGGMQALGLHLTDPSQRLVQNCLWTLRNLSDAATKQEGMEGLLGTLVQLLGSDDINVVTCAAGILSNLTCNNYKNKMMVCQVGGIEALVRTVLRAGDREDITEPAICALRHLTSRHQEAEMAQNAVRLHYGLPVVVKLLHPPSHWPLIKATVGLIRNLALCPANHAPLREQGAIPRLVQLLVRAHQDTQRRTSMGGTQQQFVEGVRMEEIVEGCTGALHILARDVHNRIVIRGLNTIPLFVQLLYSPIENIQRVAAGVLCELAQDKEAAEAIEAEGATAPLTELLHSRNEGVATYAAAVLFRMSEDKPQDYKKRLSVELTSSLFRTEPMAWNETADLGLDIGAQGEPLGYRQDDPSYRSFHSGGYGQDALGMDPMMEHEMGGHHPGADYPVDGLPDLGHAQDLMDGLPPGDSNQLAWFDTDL
# T4: full-length beta-Catenin (Uniprot ID P35222) (Homo sapiens (Human), UniProt P35222 1-781)
# T4 construct: also called bCat; B-Catenin
# T4 sequence: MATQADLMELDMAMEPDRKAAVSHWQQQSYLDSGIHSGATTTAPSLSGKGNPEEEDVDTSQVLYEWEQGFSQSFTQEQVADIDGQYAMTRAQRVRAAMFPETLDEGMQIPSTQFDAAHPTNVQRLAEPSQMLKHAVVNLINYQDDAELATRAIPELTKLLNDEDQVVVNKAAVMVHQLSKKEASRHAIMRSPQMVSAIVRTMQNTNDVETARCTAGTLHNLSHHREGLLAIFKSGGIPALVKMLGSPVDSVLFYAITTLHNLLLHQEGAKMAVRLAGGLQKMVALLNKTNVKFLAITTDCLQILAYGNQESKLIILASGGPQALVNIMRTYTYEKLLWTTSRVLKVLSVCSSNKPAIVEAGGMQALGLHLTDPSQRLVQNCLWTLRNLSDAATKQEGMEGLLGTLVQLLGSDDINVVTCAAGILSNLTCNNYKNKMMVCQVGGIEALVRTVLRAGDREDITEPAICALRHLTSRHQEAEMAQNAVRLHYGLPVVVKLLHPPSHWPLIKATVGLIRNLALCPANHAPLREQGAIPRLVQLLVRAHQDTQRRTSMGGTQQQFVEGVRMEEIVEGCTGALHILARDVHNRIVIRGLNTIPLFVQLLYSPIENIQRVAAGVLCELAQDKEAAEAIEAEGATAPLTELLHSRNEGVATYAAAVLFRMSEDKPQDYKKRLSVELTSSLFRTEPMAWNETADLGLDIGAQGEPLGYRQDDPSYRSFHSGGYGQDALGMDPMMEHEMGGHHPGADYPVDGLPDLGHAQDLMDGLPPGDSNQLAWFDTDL
# Tests used:
# [1] = molecular target: T1, B-cat-Halo; test: cell-based or functional assay
# [2] = molecular target: T2, beta-catenin in DLD1 TCF/LEF luciferase …; test: cell-based or functional assay
# [3] = molecular target: T3, full-length beta-Catenin (Uniprot ID …); test: fluorescence polarization competition; peptide titrated against 10 nM full-length beta-catenin with 10 nM 5FAM-TCF4(10-53) probe
# Method: (§1) The plate was incubated protected from light for 60 minutes at 20° C. prior to read. Reads were performed on a CLARIOstar plate reader (BMG Labtech) in duplicate, and data were fitted to a 1:1 binding model with hill slope using an in-house script. All provided concentrations are final concentrations.
# [4] = molecular target: T4, full-length beta-Catenin (Uniprot ID …); test: fluorescence polarization competition; peptide titrated against full-length beta-catenin + 5FAM-TCF4(10-53)
# Method: as §1
binder,measurement,setting,value
"Ac-[αAllylPro]D[tBuAla][B5(4)]D[TfeGA″]AAFL[PyrS2″][3Thi][Bta]T-NH2 (staple 1-4, 4-11; reading uncertain) [I-1706]",NanoBRET Abs IC50,[1],4.8 µM
same,DLD1 4% Abs IC50,[2],2.7 µM
Ac-FDA[R8]DDAA[Phe(4-F)]V[PyrS]FWQ-NH2 (staple 4-11) [I-78: Ac-Phe-Asp-Ala-R8-Asp-Asp-Ala-Ala-4FF-Val-PyrS-Phe-Trp-Gln-NH2 (stapled peptide)],IC50,[3],5 µM
"Ac-[αAllylPro]DI[B5]DEAA[Phe(3-OMe)]Q[S8]F[Bta]Q-NH2 (staple 1-4, 4-11, also called Ac-PL3-Asp-Ile-B5-Asp-Glu-Ala-Ala-3OMeF-Gln-S8-Phe-BztA-Gln-NH2) [I-724]",IC50,[4],0.114 µM
